Results from US20240010747A1, “ANTI-MRP4 (ENCODED BY ABCC4 GENE) ANTIBODIES AND USES THEREOF” (Kenjockety Biotechnology, Inc., priority 2020, published 2024).

T1: human ABCC4 (Homo sapiens, UniProt O15439)
T1 construct: expressed in transfected cells
T1 sequence (O15439 1-1325): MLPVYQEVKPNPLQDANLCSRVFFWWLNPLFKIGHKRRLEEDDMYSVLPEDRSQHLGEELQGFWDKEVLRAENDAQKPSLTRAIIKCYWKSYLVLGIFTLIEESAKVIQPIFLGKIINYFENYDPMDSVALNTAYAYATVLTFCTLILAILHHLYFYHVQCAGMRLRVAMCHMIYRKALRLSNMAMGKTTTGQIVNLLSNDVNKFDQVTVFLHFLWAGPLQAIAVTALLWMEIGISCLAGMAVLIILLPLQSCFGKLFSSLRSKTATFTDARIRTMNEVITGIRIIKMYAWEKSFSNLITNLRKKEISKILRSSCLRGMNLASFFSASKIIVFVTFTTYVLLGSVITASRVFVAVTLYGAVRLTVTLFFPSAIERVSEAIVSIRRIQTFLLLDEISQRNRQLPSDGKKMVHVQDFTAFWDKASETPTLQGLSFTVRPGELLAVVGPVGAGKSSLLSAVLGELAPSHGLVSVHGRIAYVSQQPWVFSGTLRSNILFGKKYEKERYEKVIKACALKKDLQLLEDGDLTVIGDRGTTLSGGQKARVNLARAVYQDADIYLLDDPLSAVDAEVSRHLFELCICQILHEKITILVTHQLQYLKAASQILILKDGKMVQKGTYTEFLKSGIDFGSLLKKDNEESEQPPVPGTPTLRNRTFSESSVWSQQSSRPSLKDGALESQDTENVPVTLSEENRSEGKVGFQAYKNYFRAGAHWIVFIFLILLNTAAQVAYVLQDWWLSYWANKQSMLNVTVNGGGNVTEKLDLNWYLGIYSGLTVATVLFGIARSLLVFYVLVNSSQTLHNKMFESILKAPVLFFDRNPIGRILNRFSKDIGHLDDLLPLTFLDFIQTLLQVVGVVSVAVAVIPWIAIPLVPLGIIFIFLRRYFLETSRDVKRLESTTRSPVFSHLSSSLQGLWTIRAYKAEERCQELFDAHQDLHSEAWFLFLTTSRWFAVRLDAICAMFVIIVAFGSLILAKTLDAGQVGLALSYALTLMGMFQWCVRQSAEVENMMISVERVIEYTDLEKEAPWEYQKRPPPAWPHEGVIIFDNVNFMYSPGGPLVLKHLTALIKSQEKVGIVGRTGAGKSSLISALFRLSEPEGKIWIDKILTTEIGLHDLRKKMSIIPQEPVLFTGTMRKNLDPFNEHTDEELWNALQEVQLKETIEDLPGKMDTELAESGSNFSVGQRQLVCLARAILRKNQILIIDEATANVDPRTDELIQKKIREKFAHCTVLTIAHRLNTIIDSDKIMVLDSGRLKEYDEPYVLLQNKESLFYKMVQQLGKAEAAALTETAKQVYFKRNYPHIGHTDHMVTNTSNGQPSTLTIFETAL


Experiments:
cynomolgus ABCC4 [1] = experiment: Flow cytometry (FACS) binding to C6 cells stably transfected to express cynomolgus ABCC4 (Table 3 study); design: key to Cynomolgus ABCC4 binding: Negative (−) is defined as maximum response (Rmax(MFI)) below background level; Positive (+) is defined as MFI>1000; details: for Cynomolgus ABCC4 binding: C6 cells stably transfected to express cynomolgus ABCC4, FACS, Table 3; for binding to cynomolgus ABCC4 expressed on cell surface: Table 3 study, stated in words
Method: (§1) Binding titration of recombinant antibodies to ABCC4 transfectants was performed by serial dilution of antibodies from about 666 nM. Diluted antibody in flow cytometry buffer was incubated with cells on ice for 30 min. After 2 washes with flow cytometry buffer, bound antibody was detected with PE-labeled F(ab′)2 fragment goat anti-human IgG (Jackson ImmunoResearch) diluted 1:200 in flow cytometry buffer and incubated with cells for 20 min on ice. After 2 washes with flow cytometry buffer fluorescence was measured on an Attune N×T flow cytometer. Data were analyzed with GraphPad Prism 8.0 software to determine EC50's.
(§2) Human embryonic kidney HEK 293T cells and murine C6 (ATCC CCL-107) were transfected with human or cynomolgus ABCC4 cDNA with C-terminal fused FLAG tag in a pMONO-hygro vector with Lipofectamine 3000 (Invitrogen #L3000001). The cells were treated with 0.2 mg/ml and 0.5 mg/ml hygromycin respectively for about 2 weeks while cultivated in DMEM and 10% FBS with 0.2 mg/ml hygromycin and 0.5 mg/ml hygromycin, respectively. The cells were washed with PBS, and stained with […] of anti-FLAG-PE after fixing and permeablization. Clones expressing ABCC4 were single-cell sorted into 200 μl DMEM with 10% FBS using a BD Aria FACS machine and cultivated in 96 well plates using standard techniques in an incubator at 37° C. and 5% CO 2. Two weeks later clones expressing high levels of ABCC4 were screened and amplified.
(§3) Antibody binding to cells was evaluated by flow cytometry. Murine C6 cells stably transfected to express human or cynomolgus ABCC4 were washed once in flow cytometry buffer (PBS+2% FBS+0.02% sodium azide), resuspended at 2×10^6 cells/mL in flow cytometry buffer, and dispensed into 96-well microtiter plates at 0.1 mL/well. Recombinant antibodies were added to cells at 5 ug/mL for initial binding confirmation, or serially diluted from 100 ug/mL in flow cytometry buffer. After incubating cells on ice for 30 min, cells were washed twice with flow cytometry buffer. Bound antibody was detected with PE-labeled F(ab′)2 fragment goat anti-human IgG (Jackson ImmunoResearch) and evaluated on an Attune N×T flow cytometer. EC50 is calculated to be the concentration of antibody that gives half maximal response.
(§4) Table 3 lists the following characteristics of the rat anti-ABCC4 antibodies tested: binding to C6 cells stably transfected to express human ABCC4 measured by FACS and binding to C6 cells stably transfected to express cynomolgus ABCC4 measured by FACS. Negative (−) is defined as maximum response (Rmax(MFI)) below background level. Positive (+) is defined as MFI>1000.

human ABCC4 [2] = molecular target: T1, human ABCC4; experiment: Flow cytometry (FACS) binding to C6 cells stably transfected to express human ABCC4 (different experiment, Table 4); details: for Human ABCC4 binding: C6 cells stably transfected to express human ABCC4, FACS, different experiment, Table 4; for binding to human ABCC4 expressed on cell surface: Table 4 study, stated in words
Method: as §1, §2, §3
(§5) In a different experiment, using a different C6.cC4 cell line, detecting the binding of anti-ABCC4 antibodies to C6 cells stably transfected to express human ABCC4 measured by FACS and to C6 cells stably transfected to express cynomolgus ABCC4 measured by FACS, the results set forth in Table 4 were obtained. Negative (−)=Rmax (MFI) below background level. Positive (+)=MFI>3× background level.

cynomolgus ABCC4 [3] = experiment: Flow cytometry (FACS) binding to C6 cells stably transfected to express cynomolgus ABCC4 (different experiment, different C6.cC4 cell line, Table 4); design: key to Cynomolgus ABCC4 binding: Negative (−)=Rmax (MFI) below background level; Positive (+)=MFI>3× background level; details: for binding to cynomolgus ABCC4 expressed on cell surface: Table 4 study, stated in words; for Cynomolgus ABCC4 binding: different C6.cC4 cell line, C6 cells stably transfected to express cynomolgus ABCC4, FACS, Table 4
Method: as §1, §2, §3, §5

human ABCC4 [4] = molecular target: T1, human ABCC4; experiment: Flow cytometry (FACS) binding to C6 cells stably transfected to express human ABCC4 (Table 3 study); details: for Human ABCC4 binding: C6 cells stably transfected to express human ABCC4, FACS, Table 3; for binding to human ABCC4 expressed on cell surface: Table 3 study, stated in words
Method: as §1, §2, §3, §4

Molecule | Cynomolgus ABCC4 binding (cynomolgus ABCC4 [1]) | binding to cynomolgus ABCC4 expressed on cell surface (cynomolgus ABCC4 [1]) | Human ABCC4 binding (human ABCC4 [2]) | binding to human ABCC4 expressed on cell surface (human ABCC4 [2]) | binding to cynomolgus ABCC4 expressed on cell surface (cynomolgus ABCC4 [3]) | Cynomolgus ABCC4 binding (cynomolgus ABCC4 [3]) | Human ABCC4 binding (human ABCC4 [4]) | binding to human ABCC4 expressed on cell surface (human ABCC4 [4])
C4.961: anti-ABCC4 antibody raised in rats; VH SEQ ID NO: 9, VL SEQ ID NO: 130 (antibody, V domains shown) VH: EVQLKESGPGLVQPSQTLSLTCAVSGFSLTNYHVHWVRQPPGKGLEWMGVMWSDGDTSYNSALKSRLSISRDTSKSQFFLKMNSLQTEDTATYYCARGGVYFDYWGQGASVTVSS VL: DIVMTQSPSSLAVSAGETVTINCKSSQSLLYSGNQKNSLAWYQQKPGQSPKLLIYWASTRQSGVPDRFIGSGSGTDFTLTFSSVQAEDLAIYYCQHYFDTPYTFGAGTKLELK | + (Positive (+) is defined as MFI>1000) | bind to both human and cynomolgus ABCC4 | + (Positive (+)=MFI>3× background level) | bind to both human and cynomolgus ABCC4 | bind to both human and cynomolgus ABCC4 | + (Positive (+)=MFI>3× background level) | + (Positive (+) is defined as MFI>1000) | bind to both human and cynomolgus ABCC4
C4.976: anti-ABCC4 antibody raised in rats; VH SEQ ID NO: 12, VL SEQ ID NO: 132 (antibody, V domains shown) VH: EVKLLESGGGLVQPGRSLKVSCVASGFIFSDYYMAWVRQAPTKGLEWVAYINYDGGSTYYGDSVKGRFTISRDNAKSSLYLQMNSLRFEDMATYYCARRDYGSKFDYWGQGVMVTVSS VL: EIVIIQSPALAVSLGQRATISCKTNQNVDYYGNSYIHWYQQKPGQQPKLLIYLASNLASGIPARFSGRGSGTDFTLTIDPVEADDPATYYCQQSRNLPFTFGSGTKLELK | + (Positive (+) is defined as MFI>1000) | bind to both human and cynomolgus ABCC4 | + (Positive (+)=MFI>3× background level) | bind to both human and cynomolgus ABCC4 | bind to both human and cynomolgus ABCC4 | + (Positive (+)=MFI>3× background level) | + (Positive (+) is defined as MFI>1000) | bind to both human and cynomolgus ABCC4
C4.886: anti-ABCC4 antibody raised in rats; VH SEQ ID NO: 2, VL SEQ ID NO: 125 (antibody, V domains shown) VH: EVKLLESGGDLLQPGRSLKLSCAASGFTFNDYNMAWVRQAPKKGLQWVATILYDGSRTYYRDSVKGRFTISRDNSKSTLYLQMDSLRSEDTATYYCTTEFGYGSSHWFACWGQGTLVTVSS VL: DVVLTQTPVSLPVSLGGQASISCRSSQSLVHSNGNTYLHWYLQKPGQSPQLLISRISNRFSGVPDRFSGSGSGTDFTLKISRVEPEDLGDYYCFQSTHFPHTFGAGTKLEIK | − |  | + (Positive (+)=MFI>3× background level) | bind to both human and cynomolgus ABCC4 | bind to both human and cynomolgus ABCC4 | + (Positive (+)=MFI>3× background level) | + (Positive (+) is defined as MFI>1000) | 
C4.953: anti-ABCC4 antibody raised in rats; VH SEQ ID NO: 6, VL SEQ ID NO: 129 (antibody, V domains shown) VH: QVTLKESGPGILQPSQTLSLTCTFSGFSLSTYGMGVGWIRQPSGKALEWLANIWWDDDKSYNPSLKNRLTISKGTSNNQAFLKITSVDTADSATYHCARIGSGNSEFDYWGQGVMVTVSS VL: DVVLTQSPSSLSASLGDRVTITCRASQDIGNYLTWFQQKPGKSPRRMIYGATNLAAGVPSRFSGSRSGSDYSLTISSLESEDVADYHCLQSIQYPFTFGSGTKLEIK | − |  | + (Positive (+)=MFI>3× background level) | bind to both human and cynomolgus ABCC4 | bind to both human and cynomolgus ABCC4 | + (Positive (+)=MFI>3× background level) | + (Positive (+) is defined as MFI>1000) | 
C4.927: anti-ABCC4 antibody raised in rats; VH SEQ ID NO: 4, VL SEQ ID NO: 127 (antibody, V domains shown) VH: EVQLVESGPGLVQPSRTLSLTCTVSGFSLTSYGVSWVRQPPGKGLEWIAAIWSGGSTDYNSALKSRLSISRDTSKSQVLLKMNSLQTEDTAMYFCARGATEGIDYWGQGASVTVSS VL: AIQVTQSPTSLSASLGDRVTLTCRASQDINNKMAWYQQKPGEVPQLLIYYASTLQSGTPSRFSGSGSGTDFSFTISHLQSEDFATYYCLQGYSLYTFGAGTKLELK |  |  | + (Positive (+)=MFI>3× background level) |  |  | − |  | 
